Data published in the supplement of paper PMC12764529.
± gives the half width of the 95% confidence interval.

How the values were obtained:
[1] = folding stability dG unfold from trypsin proteolysis; higher = more stable
How it was run: (§1)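 Unfolding free energy was derived, per protease or combined, against a sequence-predicted unfolded-state K50 and a shared folded-state K50, starting from K50 inferred by Bayesian fitting of sequencing counts. Digestion with trypsin and chymotrypsin was carried out on designed mini-proteins under 80 residues without cysteine in a PA-tagged cDNA display construct. Only designs with AlphaFold2 dimer inter-PAE above 15 were kept.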

[2] = folding stability dG unfold from chymotrypsin proteolysis; higher = more stable
How it was run: as §1

[3] = folding stability dG unfold (combined trypsin and chymotrypsin); higher = more stable
How it was run: as §1

Sequence | folding stability dG unfold [1] [kcal/mol] | folding stability dG unfold [2] [kcal/mol] | folding stability dG unfold [3] [kcal/mol]
SAGGSAGGSAGGMVVRITTKDGRTITFPPGTSLEELRSLPADEITRVEVVEVEPVRVVEPSAGGSAGGSAGG [r7_190_TrROS_Hall] | 1.45 ± 0.028 | 1.97 ± 0.051 | 1.75 ± 0.082
SAGGSAGGSAGGMVVRVTKNGTSTEIIVDSEEEAKELLKPLFPDDSEVEIEFVSEEELSSAGGSAGGSAGGS [r10_1167_JUSTAS] | 0.0397 ± 0.07 | 0.963 ± 0.065 | 0.718 ± 0.12
SAGGSAGGSAGGMYFIRIKPPNGEELVILIPPGDEIKIKDADGRPWKITDVYPMPPEQFSAGGSAGGSAGGS [r10_422_TrROS] | -0.17 ± 0.27 | -0.118 ± 0.73 | 0.0506 ± 0.41
SAGGSAGGSAGGMYRIKVTTKDGRERVIEVKPGEEITLEELRKAGLSEEEIERVEIEEVSAGGSAGGSAGGS [r10_565_TrROS_Hall] | 1.89 ± 0.076 | 1.85 ± 0.051 | 1.84 ± 0.092
SAGGSAGGSAGGMYRVEIETKGNKKVYIFPNLSPEELAKFLEDPKVVSYKVEKLSPEELESAGGSAGGSAGG [r7_502_JUSTAS] | 2.04 ± 0.077 | 2.34 ± 0.094 | 2.27 ± 0.08
SAGGSAGGSAGGNEEDIEKAVKEAKEKGENAEVKVTLPNGKEETVYIEVNVKEPSEKLKSAGGSAGGSAGGS [r10_573_JUSTAS] | -1.05 ± 0.47 | -1.04 ± 0.22 | < -1
SAGGSAGGSAGGNFKITEPVEEYPNPNGNPIKVFTFKNPDDGPEFTFIFMPNGNWQFIPSAGGSAGGSAGGS [r10_1123_TrROS] | 0.674 ± 0.09 | 0.797 ± 0.14 | 0.77 ± 0.12
SAGGSAGGSAGGNPGGKRQWVMMEFPIPPGKKIELPPNFNVSIFRDNDRLWLMITVDAVKSAGGSAGGSAGG [r7_584_TrROS] | 1.7 ± 0.07 | 1.88 ± 0.06 | 1.9 ± 0.11
SAGGSAGGSAGGNVITVFIPNYQIITIHLSPEPGRIPIEVYPPNGKKEEWPIPDIKELIQSAGGSAGGSAGG [r7_769_TrROS] | 1.6 ± 0.13 | -0.306 ± 0.14 | 1.01 ± 0.13
SAGGSAGGSAGGNVRLTVTLDENGRLRVTAEVEVTNENGEKKTYRLTLTLKLKPGQTLTSAGGSAGGSAGGS [r10_763_TrROS_Hall] | 2.9 ± 0.054 | 3.863 ± 0.024 | 3.55 ± 0.13
SAGGSAGGSAGGNVRNLDISLDPEEGTIKIKATLPENGQTWEITIPVQIPLPPPPPGDNSAGGSAGGSAGGS [r10_331_TrROS] | 0.49 ± 0.1 | 0.502 ± 0.12 | 0.424 ± 0.29
SAGGSAGGSAGGNWVMIEFNFPPGKKLKIEIPNGRDIQRHRDPDNGTLWFMIPPEAAEDFSAGGSAGGSAGG [r7_155_TrROS] | 0.649 ± 0.11 | 0.509 ± 0.26 | 0.636 ± 0.27
SAGGSAGGSAGGNYFMMVVLEIRLPPELKGMSPEEWLKKNGYEVTEIEIKGIYPFPPPDGSAGGSAGGSAGG [r7_62_TrROS] | 2.02 ± 0.12 | 3.31 ± 0.062 | 2.9 ± 0.1
SAGGSAGGSAGGPANLNDEPVLLIPVSSELLKLIPAEKLVELAAKLASPNVKRIYVLAPESAGGSAGGSAGG [r7_487_TrMRF] | 0.12 ± 0.11 | 0.58 ± 0.13 | 0.424 ± 0.088
SAGGSAGGSAGGPEEPEKLTLRVTLTFYNPETQEPVEEVEVEITLTAEDLKEGKITITPSAGGSAGGSAGGS [r10_672_TrROS_Hall] | 1.54 ± 0.043 | 2.85 ± 0.07 | 2.32 ± 0.13
SAGGSAGGSAGGPEIELLEDVKPGEFVVIKVKLKDADGNEVTATFVFYNGEWYLTKIEPSAGGSAGGSAGGS [r10_288_TrROS_Hall] | 2.92 ± 0.14 | 4.73 ± 0.063 | 4.54 ± 0.2
SAGGSAGGSAGGPEVERFRIPGDNVLVEVVRLEDERIARITFPDGSQLTVPLPPGWEAFSAGGSAGGSAGGS [r10_976_TrMRF] | 0.853 ± 0.031 | 0.851 ± 0.13 | 0.948 ± 0.097
SAGGSAGGSAGGPEVTLRLRLEVEVRVVVLKDGKLEEKTFRFELEVEVRFEPGMSLEELSAGGSAGGSAGGS [r10_633_TrROS_Hall] | 3.23 ± 0.15 | 4.09 ± 0.086 | 3.91 ± 0.075
SAGGSAGGSAGGPILKITLELSPEEIEELAKALGLKVKKVEKEKNKDGKLRVTIYIELKSAGGSAGGSAGGS [r10_999_TrROS_Hall] | 2.12 ± 0.085 | 3.24 ± 0.057 | 2.81 ± 0.078
SAGGSAGGSAGGPKTVRIVEYDPETQRVVIELEDGSKVVIEVPPGMSVEELKGKTLTVEPSAGGSAGGSAGG [r7_296_TrROS_Hall] | 1.79 ± 0.051 | 0.569 ± 0.1 | 1.14 ± 0.17
SAGGSAGGSAGGPKVEIVEVTVEGDKVTIRVKNEETGEWVTLEVTLKDLPKVTFVLKPKSAGGSAGGSAGGS [r10_655_TrROS_Hall] | 1.17 ± 0.032 | 1.16 ± 0.19 | 1.19 ± 0.11

Sequence | folding stability dG unfold [1] [kcal/mol] | folding stability dG unfold [2] [kcal/mol] | folding stability dG unfold [3] [kcal/mol]
SAGGSAGGSAGGPKVFKFKDKIIVIYPNKKPNEEVKVVVKNPKTGKKEEFKIKIPKELLKSAGGSAGGSAGG [r7_834_TrMRF] | 0.512 ± 0.079 | 1.11 ± 0.13 | 0.847 ± 0.11
SAGGSAGGSAGGPLIVFERNADGTLTAVAVDEETGEVTVTRVTLKDGKLTVETETLPLDESAGGSAGGSAGG [r7_28_TrROS_Hall] | 1.49 ± 0.048 | 1.82 ± 0.017 | 1.65 ± 0.042
SAGGSAGGSAGGPNHYVMATETIEFEFEIRTRNEDGKPQEIKIKFTLTVIRMFPLPPGDPSAGGSAGGSAGG [r7_926_TrROS] | 3.36 ± 0.42 | 5.03 ± 0.26 | 4.73 ± 0.25
SAGGSAGGSAGGPNNKPKPKQVTFDIEIEDIEIDPEHGLISIEIRFPDGGKEITARIPISAGGSAGGSAGGS [r10_427_TrROS] | 0.14 ± 0.059 | 0.27 ± 0.11 | 0.276 ± 0.16
SAGGSAGGSAGGPPDLVKVRFIKVSVKLKEVKENPNGEKEMKLEMKIEEVEVTVRKDDLSAGGSAGGSAGGS [r10_524_TrROS_Hall] | 2.61 ± 0.21 | 2.71 ± 0.12 | 2.71 ± 0.15
SAGGSAGGSAGGPPVTLLVVVRNEDGSLYLVRVEFDLETNEVKVEVFTLDDLKNLPEELSAGGSAGGSAGGS [r10_1077_TrROS_Hall] | 2.14 ± 0.14 | 3.66 ± 0.075 | 3.26 ± 0.25
SAGGSAGGSAGGPTLELEITLPDGFKLRVTFDPEKGLRVELVEPVPAPPPKVEYRSLEDLSAGGSAGGSAGG [r11_188_TrROS_Hall] | 0.552 ± 0.13 | 1.62 ± 0.11 | 1.37 ± 0.18
SAGGSAGGSAGGPVFTPVGAGDEDTVTTETLPDGSPVLRYTVPGTGVVEVALPDGTLLAESAGGSAGGSAGG [r11_601_JUSTAS] | -0.722 ± 0.073 | -1.66 ± 0.79 | -0.883 ± 0.22
SAGGSAGGSAGGPYWRVKIEWMDPNGKKKEHTFTFPPGWPLEEIAEELKPNGYKIEVEPLSAGGSAGGSAGG [r7_226_TrROS] | 0.962 ± 0.044 | 1.7 ± 0.1 | 1.46 ± 0.085
SAGGSAGGSAGGQTIVIDSRLLRTALENGDLEKLKALVEEAGYNPENAKIYLITPEELKESAGGSAGGSAGG [r7_3_TrMRF] | -0.133 ± 0.1 | 0.741 ± 0.11 | 0.464 ± 0.055
SAGGSAGGSAGGRFEVLGVEPLPGNWVRVRVRYPGLGREATFLVRVSSLPLPPVDLDRFDSAGGSAGGSAGG [r11_986_TrMRF] | 1.82 ± 0.037 | 3.11 ± 0.046 | 2.71 ± 0.083
SAGGSAGGSAGGSAGRLVKETKTTSYIFTFKKPTGEPISKKTSFVTSSLILLSDPSKISSAGGSAGGSAGGS [r4_450_JUSTAS] | 4.18 ± 0.37 | 4.6 ± 0.39 | 4.6 ± 0.44
SAGGSAGGSAGGSAKIDLPFPAEITEIRPRPDGSVEIRLSFPTYTVTAIIPPNGIKIYGSAGGSAGGSAGGS [r4_280_TrMRF] | 0.855 ± 0.017 | -0.0211 ± 0.11 | 0.487 ± 0.065
SAGGSAGGSAGGSAPPNLIIFIHVEIKIKEPKFDPGNGKPEYEIEITDIPIQIMPPDDLSAGGSAGGSAGGS [r4_417_TrROS] | 2.15 ± 0.16 | 2.39 ± 0.088 | 2.26 ± 0.11
SAGGSAGGSAGGSAPYPNTVVPTPLLSSVVTETTVEFFPDGTVVPVSTTTTVVLVYRLLSAGGSAGGSAGGS [r4_288_JUSTAS] | 3.54 ± 0.13 | 4.75 ± 0.12 | 4.53 ± 0.15
SAGGSAGGSAGGSDKGQPRVEIPMPFFMPNPNYVIRITMEIDLDPNGQIREIDVEVYKFSAGGSAGGSAGGS [r4_75_TrROS] | 3.21 ± 0.096 | 4.67 ± 0.1 | 4.08 ± 0.14
SAGGSAGGSAGGSDVKIEVERGPNGYYTVTIELNGKPKIIPFPPGRPPEDAKDEIKDLLSAGGSAGGSAGGS [r4_7_TrROS] | 0.554 ± 0.058 | -0.279 ± 0.13 | 0.335 ± 0.12
SAGGSAGGSAGGSDYIMFRIPAPPGEKIEIPIPNGWEVEINPQPHNGRWYFMIKIPEDASAGGSAGGSAGGS [r4_360_TrROS] | 1.05 ± 0.085 | 1.09 ± 0.11 | 1.13 ± 0.12
SAGGSAGGSAGGSELIFKTEDGYYVKVKLKNGKTIVFPAENLEELKKLNVEKVEVVPAKSAGGSAGGSAGGS [r4_348_TrROS_Hall] | 0.332 ± 0.039 | 0.831 ± 0.042 | 0.684 ± 0.064
SAGGSAGGSAGGSEVEVLDSRPLPDGHHLVLVRFPDGSYALYRIYPDGSVEVEVFSDDGSAGGSAGGSAGGS [r4_483_TrMRF] | 2.47 ± 0.066 | 4.205 ± 0.029 | 3.81 ± 0.084
SAGGSAGGSAGGSFELVGLVSEFEDENGIPVRVFKAKNPLLGYEFLVVVLPNGEVFFLPSAGGSAGGSAGGS [r10_1123_TrMRF] | 2.8 ± 0.053 | 3.124 ± 0.014 | 2.99 ± 0.089
